Data as given in publication PMC4574919, “Structural and Biochemical Analysis of a Single Amino-Acid Mutant of WzzBSF That Alters Lipopolysaccharide O-Antigen Chain Length in Shigella flexneri” (PLoS ONE, 2015).

B1: full-length WzzBSF (natural protein)
chain: MRVENNNVSGQNHDPEQIDLIDLLVQLWRGKMTIIISVIVAIALAIGYLAVAKEKWTSTAIITQPDVGQIAGYNNAMNVIYGQAAPKVSDLQETLIGRFSSAFSALAETLDNQEEPEKLTIEPSVKNQQLPLTVSYVGQTAEGAQMKLAQYIQQVDDKVNQELEKDLKDNIALGRKNLQDSLRTQEVVAQEQKDLRIRQIQEALQYANQAQVTKPQVQQTEDVTQDTLFLLGSEALESMIKHEATRPLVFSPNYYQTRQNLLDIEKLKFDDLDIHAYRYVMKPTLPIRRDSPKKAITLILAVLLGGMVGAGIVLGRNALRNYNAK
notes: WzzBSF of Shigella flexneri, wzzSF open reading frame in pRMCD30; ~36 kDa; also called wild-type WzzBSF; source: S. flexneri RMA4053 (wzz::kan), from plasmid pRMCD30 (pQE30-based), IPTG-induced, in whole cells
B2: periplasmic domain of WzzBSF (residues 54-295) (domain or fragment)
chain: EKWTSTAIITQPDVGQIAGYNNAMNVIYGQAAPKVSDLQETLIGRFSSAFSALAETLDNQEEPEKLTIEPSVKNQQLPLTVSYVGQTAEGAQMKLAQYIQQVDDKVNQELEKDLKDNIALGRKNLQDSLRTQEVVAQEQKDLRIRQIQEALQYANQAQVTKPQVQQTEDVTQDTLFLLGSEALESMIKHEATRPLVFSPNYYQTRQNLLDIEKLKFDDLDIHAYRYVMKPTLPIRRDSPKKA
notes: WzzBSF (polysaccharide co-polymerase, O-antigen chain length regulator) of Shigella flexneri, periplasmic domain, residues 54-295; Cloned in pMCSG7 by ligation-independent cloning; also called wild-type WzzBSF periplasmic domain; source: E. coli BL21(DE3), autoinduction, purified (HisTrap, TEV cleavage, reverse HisTrap, Superdex 200 SEC); not shown: His6, N-terminal, cleaved
B3: periplasmic domain of WzzBSF A107P (residues 54-295) (domain or fragment)
chain: EKWTSTAIITQPDVGQIAGYNNAMNVIYGQAAPKVSDLQETLIGRFSSAFSALPETLDNQEEPEKLTIEPSVKNQQLPLTVSYVGQTAEGAQMKLAQYIQQVDDKVNQELEKDLKDNIALGRKNLQDSLRTQEVVAQEQKDLRIRQIQEALQYANQAQVTKPQVQQTEDVTQDTLFLLGSEALESMIKHEATRPLVFSPNYYQTRQNLLDIEKLKFDDLDIHAYRYVMKPTLPIRRDSPKKA
notes: WzzBSF of Shigella flexneri, periplasmic domain, residues 54-295, with the mutation A107P found by random mutagenesis; Same construct limits as m1 ('the equivalent construct containing the A107P mutation'); also called A107P mutant; source: E. coli BL21(DE3), autoinduction, purified (HisTrap, TEV cleavage, reverse HisTrap, Superdex 200 SEC); not shown: His6, N-terminal, cleaved

Columns and labels:
[1] = target: the molecule itself; assay: SDS-PAGE and immunoblot of non-cross-linked cells; whole S. flexneri cells incubated without formaldehyde (control), samples heated at 60°C for 5 min, 12% SDS-PAGE, immunoblot with anti-WzzBSF
[2] = target: the molecule itself; assay: crystal structure; hanging drop, 18°C, 0.1 M citric-acid/HEPES/CHES pH 7.3, 18% PEG 400, 18% PEG 8000, 0.1 M MgCl2; protein 12-13 mg/ml; open trimer in the crystal

| Protein | stoichiometry N [1] | stoichiometry N [2] |
| --- | --- | --- |
| B1 | 2 | – |
| B2 | – | 3 |
| B3 | – | 3 |
